Experimental data reported in patent US7057012B1, “PTH functional domain conjugate peptides, derivatives thereof and novel tethered ligand-receptor molecules” (The General Hospital Corporation, priority 1998, dated 2006).
Where two headings read alike, the source gives them in different places. Values belong to the substance of their own block, whether it stands above or below them. No end group written: not given here.

Tests used:
human PTH-1 receptor = biological target: T1, human PTH-1 receptor (Homo sapiens, UniProt Q03431); experiment: cAMP accumulation in COS cells expressing the human PTH-1 receptor; type: cell-based; details: for cAMP accumulation as compared to basal levels in un-stimulated cells: 60 min at 21° C.
T1 sequence (Q03431 27-593): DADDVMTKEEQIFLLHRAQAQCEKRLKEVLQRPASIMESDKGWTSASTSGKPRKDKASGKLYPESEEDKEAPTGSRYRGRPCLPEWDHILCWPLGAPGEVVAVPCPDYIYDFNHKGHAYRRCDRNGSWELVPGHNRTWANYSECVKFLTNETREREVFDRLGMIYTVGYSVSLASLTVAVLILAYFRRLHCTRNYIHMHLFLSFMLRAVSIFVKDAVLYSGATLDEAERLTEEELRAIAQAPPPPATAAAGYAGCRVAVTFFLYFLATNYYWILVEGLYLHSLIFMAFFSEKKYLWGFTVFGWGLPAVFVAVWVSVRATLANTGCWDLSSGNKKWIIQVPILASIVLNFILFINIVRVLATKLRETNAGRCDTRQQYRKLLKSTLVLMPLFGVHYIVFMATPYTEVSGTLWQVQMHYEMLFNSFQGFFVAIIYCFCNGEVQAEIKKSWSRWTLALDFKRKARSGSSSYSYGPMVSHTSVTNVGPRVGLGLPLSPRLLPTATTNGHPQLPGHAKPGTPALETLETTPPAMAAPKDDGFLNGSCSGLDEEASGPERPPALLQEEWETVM
Procedure: Intracellular cAMP accumulation is measured as described previously (Abou-Samra et al., J. Biol. Chem. 262:1129, 1986). Cells grown in 24-well plates are rinsed with culture medium containing 0.1% BSA and 2 mM IBMX. The cells are then incubated with an S-(L)n-B compound or derivatives thereof for 60 min. at 21° C. The supernatant is removed and the cells immediately frozen by placing the whole plate in dry ice powder. Intracellular cAMP is extracted by thawing the cells in 1 ml of 50 mM HCl and analyzed by a specific radioimmunoassay using an anti-cAMP antibody (e.g., Sigma, St. Louis, Mo.). A cAMP analog (2′-O-monosuccinyl-adenosine 3′:5′-cyclic monophosphate tyrosyl methyl ester, obtained from Sigma) which is used a tracer for cAMP is iodinated by the chloramine T method. Free iodine is removed by adsorbing the iodinated cAMP analog onto a C18Sep-pak cartridge (Waters, Milford, Mass.). After washing with dH20, the iodinated cAMP analog is eluted from the Sep-pak Cartridge with 40% acetonitrille (ACN) and 0.1% trifluoroacetic acid (TFA). The iodinated cAMP analog is lyophilized, reconstituted in 1 ml 0.1% TFA, and injected into a C18 reverse phase HPLC column (Waters). The column is equilibrated with 10% ACN in 0.1% TFA, and eluted with gradient of 10–30% ACN in 0.1% TFA. This allows separation of the mono-iodinated cAMP analog from the non-iodinated cAMP analog. The tracer is stable for up to 4 months when stored at −20° C. The standard used for the assay, adenosine 3′:5′-cyclic monophosphate, may be purchased from Sigma. Samples (1–10 µl of HCl extracts) or standards ([…]) are diluted in 50 Mm Na-acetate (pH 5.5), and acetylated with 10 μl of mixture of triethylamine and acetic anhydride (2:1 vol:vol). After acetylation, cAMP antiserum (100 μl) is added from a stock solution (1:4000) made in PBS (pH 7.4), 5 mM EDTA and 1% normal rabbit serum. The tracer is diluted in PBS (pH 7.4) with 0.1% BSA, and added (20,000 cpm/tube). The assay is incubated at 4° C. overnight. […] The supernatant is removed and the bound radioactivity is counted in a gamma-counter (Micromedic). […]
In order to screen for agonist activity, functional domain conjugate peptides of the invention were utilized in in vitro assays designed to measure cellular response via cAMP accumulation. Intracellular cAMP accumulation is measured as described previously (Abou-Samra et al., J. Biol. Chem. 262:1129, 1986).
Cells grown in 24-well plates are rinsed with culture medium containing 0.1% BSA and 2 mM IBMX. […] Intracellular cAMP is extracted by thawing the cells in 1 ml of 50 mM HCl and analyzed by a specific radioimmunoassay using an anti-cAMP antibody (e.g., Sigma, St. Louis, Mo.). […]

wildtype PTH receptor = biological target: T2, wildtype PTH receptor (Rattus norvegicus, UniProt P25961); details: read-out: EC50, cAMP formation, cited from earlier work
T2 sequence (P25961 27-591): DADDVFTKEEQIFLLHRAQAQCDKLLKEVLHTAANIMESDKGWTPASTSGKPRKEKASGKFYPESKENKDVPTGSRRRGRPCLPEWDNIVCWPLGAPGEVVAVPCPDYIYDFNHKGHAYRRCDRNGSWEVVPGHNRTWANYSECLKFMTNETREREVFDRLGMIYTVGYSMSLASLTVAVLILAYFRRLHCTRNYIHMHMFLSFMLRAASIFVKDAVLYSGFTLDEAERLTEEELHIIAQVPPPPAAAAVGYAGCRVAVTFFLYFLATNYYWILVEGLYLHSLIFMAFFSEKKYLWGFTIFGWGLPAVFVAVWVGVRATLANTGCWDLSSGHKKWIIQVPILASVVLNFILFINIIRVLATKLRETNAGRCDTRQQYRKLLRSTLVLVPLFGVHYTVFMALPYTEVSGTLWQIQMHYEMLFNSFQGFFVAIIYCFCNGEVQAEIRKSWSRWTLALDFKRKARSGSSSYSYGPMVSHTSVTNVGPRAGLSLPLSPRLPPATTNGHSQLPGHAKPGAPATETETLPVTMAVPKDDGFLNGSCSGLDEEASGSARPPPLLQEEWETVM

truncated PTH receptor = biological target: T3, truncated PTH receptor (Rattus norvegicus, UniProt P25961); details: cited from earlier work
T3 sequence (P25961 with tags, fused parts or gaps): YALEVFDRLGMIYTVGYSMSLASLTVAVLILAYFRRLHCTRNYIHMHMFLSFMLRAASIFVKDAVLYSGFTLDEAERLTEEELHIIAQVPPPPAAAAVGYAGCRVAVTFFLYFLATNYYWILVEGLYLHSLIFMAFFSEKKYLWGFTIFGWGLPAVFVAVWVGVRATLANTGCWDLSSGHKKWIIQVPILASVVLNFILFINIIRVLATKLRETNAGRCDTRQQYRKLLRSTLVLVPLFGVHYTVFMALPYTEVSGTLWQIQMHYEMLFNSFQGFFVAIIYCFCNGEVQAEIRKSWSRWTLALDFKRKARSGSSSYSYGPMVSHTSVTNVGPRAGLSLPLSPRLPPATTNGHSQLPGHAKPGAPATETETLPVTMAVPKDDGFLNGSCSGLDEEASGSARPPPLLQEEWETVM

Substance: PTH(1–14) (AVSEIQLMHNLGKH; not fully specified (C-terminus); listed as Homo sapiens) [N-terminal fragment (1–14) of parathyroid hormone]
EC50 (wildtype PTH receptor; intact receptor): ~100 µM
EC50 (truncated PTH receptor; read-out: EC50, cAMP formation): ~100 µM

Substance: PTH(1–34)
EC50 (wildtype PTH receptor; wildtype receptor): ~0.003 µM
potency, cAMP formation (truncated PTH receptor): severly diminished

Substance: [Ala^1] PTH(1–14)
bioactivity over the background level of bioactivity of the native PTH(1–14) peptide (human PTH-1 receptor; serine at position one replaced by alanine): measurable increase in bioactivity

Second part, the substance after the results:

cAMP accumulation as compared to basal levels in un-stimulated cells (human PTH-1 receptor): increased levels of cAMP accumulation
Substance: PTH (1–5)-(Gly)9-PTH(15–31) (AVSEIGGGGGGGGGLNSMERVEWLRKKLQDV; modified PTH sequence) [PG9, S-(L)n-B peptide: PTH(1–5), linker (Gly)9, PTH(15–31)]

cAMP accumulation as compared to basal levels in un-stimulated cells (human PTH-1 receptor): increased levels of cAMP accumulation
Substance: PTH (1–9)-(Gly)7-PTH(17–31) (AVSEIQLMHGGGGGGGSMERVEWLRKKLQDV; modified PTH sequence) [PG7, S-(L)n-B peptide: PTH(1–9), linker (Gly)7, PTH(17–31)]

cAMP accumulation as compared to basal levels in un-stimulated cells (human PTH-1 receptor): increased levels of cAMP accumulation
Substance: PTH(1–9)-(Gly)5-PTH(15–31) (AVSEIQLMHGGGGGLNSMERVEWLRKKLQDV; modified PTH sequence) [PG5, S-(L)n-B peptide: PTH(1–9), linker (Gly)5, PTH(15–31)]
